Laboratory results from US20120077731A1 (Ablynx, published 2012).

Assays:
Experiment in all cases: competitive binding ELISA: IL6R20A11 (0.05 nM) pre-incubated with a series of the receptor; free IL6R20A11 captured on sIL-6R and detected via anti-His
[1] = target: T1, LIF-R (UniProt P42702 45-833, limits assumed)
T1 sequence (looked up): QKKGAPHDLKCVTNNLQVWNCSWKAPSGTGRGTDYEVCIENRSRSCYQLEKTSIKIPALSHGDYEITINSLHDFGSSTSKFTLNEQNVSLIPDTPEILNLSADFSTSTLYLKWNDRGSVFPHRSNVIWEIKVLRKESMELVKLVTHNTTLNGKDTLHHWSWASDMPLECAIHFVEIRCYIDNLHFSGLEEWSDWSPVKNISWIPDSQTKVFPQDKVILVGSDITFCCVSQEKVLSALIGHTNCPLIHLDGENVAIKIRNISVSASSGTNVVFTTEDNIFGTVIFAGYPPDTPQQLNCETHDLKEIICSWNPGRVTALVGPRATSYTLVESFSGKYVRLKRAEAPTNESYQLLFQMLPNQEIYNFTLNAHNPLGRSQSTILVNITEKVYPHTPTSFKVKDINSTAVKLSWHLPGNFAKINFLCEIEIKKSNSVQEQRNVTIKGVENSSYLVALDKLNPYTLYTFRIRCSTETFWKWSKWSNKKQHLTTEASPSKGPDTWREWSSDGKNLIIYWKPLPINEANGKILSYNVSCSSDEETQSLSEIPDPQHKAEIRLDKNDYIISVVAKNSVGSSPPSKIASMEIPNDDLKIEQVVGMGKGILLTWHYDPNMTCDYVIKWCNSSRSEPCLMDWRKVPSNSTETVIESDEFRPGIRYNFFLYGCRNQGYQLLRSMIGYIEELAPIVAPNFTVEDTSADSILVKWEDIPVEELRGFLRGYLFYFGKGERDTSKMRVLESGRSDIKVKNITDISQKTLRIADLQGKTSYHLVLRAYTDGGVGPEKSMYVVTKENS

[2] = target: T2, IL-11R/Fc (UniProt Q14626 23-370)
T2 construct: not shown: Fc part, not described
T2 sequence (looked up): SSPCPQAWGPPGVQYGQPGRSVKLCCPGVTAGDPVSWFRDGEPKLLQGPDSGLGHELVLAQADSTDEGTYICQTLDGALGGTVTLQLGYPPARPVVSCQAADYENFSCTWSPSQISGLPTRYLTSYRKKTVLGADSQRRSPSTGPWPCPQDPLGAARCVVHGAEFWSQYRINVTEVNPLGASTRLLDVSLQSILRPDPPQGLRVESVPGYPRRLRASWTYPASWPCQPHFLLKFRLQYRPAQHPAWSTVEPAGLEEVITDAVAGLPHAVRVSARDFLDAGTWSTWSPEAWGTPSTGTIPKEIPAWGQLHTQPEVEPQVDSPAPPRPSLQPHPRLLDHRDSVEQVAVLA

[3] = target: T3, CNTF-R (UniProt P26992 23-346, limits assumed)
T3 sequence (looked up): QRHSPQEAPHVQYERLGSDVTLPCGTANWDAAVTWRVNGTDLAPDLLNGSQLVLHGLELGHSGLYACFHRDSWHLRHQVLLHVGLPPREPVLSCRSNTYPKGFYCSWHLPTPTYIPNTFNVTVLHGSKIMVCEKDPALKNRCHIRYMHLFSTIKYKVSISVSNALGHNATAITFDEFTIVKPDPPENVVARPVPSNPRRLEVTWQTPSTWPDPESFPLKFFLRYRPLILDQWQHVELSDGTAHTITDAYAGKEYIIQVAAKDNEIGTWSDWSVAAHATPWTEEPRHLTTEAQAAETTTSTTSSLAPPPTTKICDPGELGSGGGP

binding result [1]: no binding (tested: 5 nM (log conc 0.7))
binding result [2]: no binding (tested: 5 nM (log conc 0.7))
binding result [3]: no binding (tested: 5 nM (log conc 0.7))
B1: PMP20A11 (VHH)
VHH: EVQLVESGGGLVQPGGSLRLSCAASGSVFKINVMAWYRQAPGKGRELVAGIISGGSTSYADSVKGRFTISRDNAKNTLYLQMNSLRPEDTAVYYCAFITTESDYDLGRRYWGQGTLVTVSS
notes: also called IL6R20A11; IL6R300; not shown: c-myc and (His)6 tags
